Source: paper PMC3347801

Biological target: human CD81 large extracellular loop fused to glutathione S-transferase (UniProt P60033)
Experiment: CD81 binding assay (immobilized GST-CD81 LEL capture of E1E2 from cell lysate, detection with anti-E2 serum R646)
Settings: lysate concentration normalized for reactivity with AP33 and ALP98 mAbs in a GNA ELISA; mock signal subtracted; triplicate; parent: est. 100; read off a plot

UniProt P60033, sequence (P60033 113-201): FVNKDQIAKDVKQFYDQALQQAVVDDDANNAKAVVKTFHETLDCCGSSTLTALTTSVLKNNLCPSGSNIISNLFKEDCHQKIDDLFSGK

Row | Substance | percent of parent
1 | HCV envelope glycoprotein E1, wild type (genotype 1a strain H77c) (from UniProt P27958) in218 (VFKHD inserted after D218) | 93 % of WT
2 | HCV envelope glycoprotein E1, wild type (genotype 1a strain H77c) (from UniProt P27958) in263 (CLNID inserted after D263) | 93 % of WT
3 | HCV envelope glycoprotein E1, wild type (genotype 1a strain H77c) (from UniProt P27958) in324 (FKQMM inserted after M324) | 88 % of WT
4 | HCV envelope glycoprotein E1, wild type (genotype 1a strain H77c) (from UniProt P27958) in341 (LFKHP inserted after P341) | 100 % of WT
5 | HCV envelope glycoprotein E1, wild type (genotype 1a strain H77c) (from UniProt P27958) in343 (CLNKA inserted after A343) | 66 % of WT
6 | HCV envelope glycoprotein E2, wild type (genotype 1a strain H77c) (from UniProt P27958) in413 (MFKQL inserted after L413) | 72 % of WT
7 | HCV envelope glycoprotein E2, wild type (genotype 1a strain H77c) (from UniProt P27958) in422 (MFKHI inserted after I422) | 22 % of WT
8 | HCV envelope glycoprotein E2, wild type (genotype 1a strain H77c) (from UniProt P27958) in424 (CLNNS inserted after S424) | 25 % of WT
9 | HCV envelope glycoprotein E2, wild type (genotype 1a strain H77c) (from UniProt P27958) in531 (MFKHA inserted after A531) | 18 % of WT
10 | HCV envelope glycoprotein E2, wild type (genotype 1a strain H77c) (from UniProt P27958) in533 (CLNND inserted after D533) | 19 % of WT
11 | HCV envelope glycoprotein E2, wild type (genotype 1a strain H77c) (from UniProt P27958) in540 (CLNIN inserted after N540) | 59 % of WT
12 | HCV envelope glycoprotein E2, wild type (genotype 1a strain H77c) (from UniProt P27958) in549 (CLNNW inserted after W549) | 45 % of WT
13 | HCV envelope glycoprotein E2, wild type (genotype 1a strain H77c) (from UniProt P27958) in573 (CLNRG inserted after G573) | 98 % of WT
14 | HCV envelope glycoprotein E2, wild type (genotype 1a strain H77c) (from UniProt P27958) in587 (CLNIR inserted after R587) | 83 % of WT
15 | HCV envelope glycoprotein E2, wild type (genotype 1a strain H77c) (from UniProt P27958) in611 (LFKHY inserted after Y611) | 34 % of WT
16 | HCV envelope glycoprotein E2, wild type (genotype 1a strain H77c) (from UniProt P27958) in614 (LFKHR inserted after R614) | 25 % of WT
17 | HCV envelope glycoprotein E2, wild type (genotype 1a strain H77c) (from UniProt P27958) in620 (CLNTC inserted after C620) | 23 % of WT
18 | HCV envelope glycoprotein E2, wild type (genotype 1a strain H77c) (from UniProt P27958) in630 (CLNIR inserted after R630) | 33 % of WT
19 | HCV envelope glycoprotein E2, wild type (genotype 1a strain H77c) (from UniProt P27958) in682 (LFKHL inserted after L682) | 83 % of WT
20 | HCV envelope glycoprotein E2, wild type (genotype 1a strain H77c) (from UniProt P27958) in692 (LFKHL inserted after L692) | 82 % of WT
21 | HCV envelope glycoprotein E2, wild type (genotype 1a strain H77c) (from UniProt P27958) in726 (FKHLL inserted after L726) | 72 % of WT
22 | HCV envelope glycoprotein E2, wild type (genotype 1a strain H77c) (from UniProt P27958) in732 (CLNIC inserted after C732) | 77 % of WT
23 | HCV envelope glycoprotein E2, wild type (genotype 1a strain H77c) (from UniProt P27958) in734 (CLNTC inserted after C734) | 96 % of WT
